Measurements reported in the RNAGym collection of RNA variant scans (doi:10.7554/elife.90254).

B1: LINE1-full (parent)
chain: UACGUAGGUGGUUUUCCCCUGAUAGUGCUAAGGGGGCCUGGAAGUUUGGACUGGGCAGAGCUCAACACAGCGUGGCAAAGUGGCUGUGGCUAGACUGCCUCUCUGGAUUCCUCGUCACUCAGCAGGGCAUCUCUGAGAGAAAUGCC

Variants of: B1
Test: self-cleavage, relative activity (ratio to wild type); higher = more cleavage; in vitro, sequencing; the parent is a self-cleaving ribozyme
For G34U, the self-cleavage was 1.43. Variant G34A has a self-cleavage of 1.16. With G34C the self-cleavage was 1.47. In the case of G35U U143A, the self-cleavage is reported as 1.56. G33U A124U showed a self-cleavage of 1.84. For G35A U45A, the self-cleavage was 1.28. For C38A U109C, the self-cleavage was 1. In the case of C37U U143A, the self-cleavage is reported as 1.14. With G35U A124U the self-cleavage was 1.41. In the case of G35A A79U, the self-cleavage is reported as 1.72. In the case of G35U C113U, the self-cleavage is reported as 1.09. With C37U A67U the self-cleavage was 0.08. In the case of G34U U85G, the self-cleavage is reported as 0.09. In the case of C38G U73A, the self-cleavage is reported as 1.76. In the case of G34C C56G, the self-cleavage is reported as 0.03. G34A A92G gave a self-cleavage of 0.08. For C37U U96A, the self-cleavage was 0.04. With G33U U130A the self-cleavage was 0.9. With G34U A117G the self-cleavage was 2. With C37G U52C the self-cleavage was 0.75. Variant G35U A43G has a self-cleavage of 1.93. For C37U U52G, the self-cleavage was 0.88. With C37U U52C the self-cleavage was 1.13. Work on G33C U87G yielded a self-cleavage of 0.22. Work on G35A A67G yielded a self-cleavage of 0.22. With G36A U85A the self-cleavage was 0.04. Variant G33U A59U has a self-cleavage of 0.62. Work on G36A U62G yielded a self-cleavage of 0.01. For G36A A57U, the self-cleavage was 0.12. Work on G36A A57G yielded a self-cleavage of 1.52. In the case of G36C G74U, the self-cleavage is reported as 1.21. With G36A A142G the self-cleavage was 1.09. In the case of G34U U134A, the self-cleavage is reported as 1.04. Work on G34U U134C yielded a self-cleavage of 1.57. Work on G36C A107G yielded a self-cleavage of 2.05. Work on G33C U104A yielded a self-cleavage of 1.27. G34A U100C showed a self-cleavage of 1.37. C37U A142G gave a self-cleavage of 1.52. With G36A A78G the self-cleavage was 1.32. For G35U U134C, the self-cleavage was 1.12. Work on G36A U39A yielded a self-cleavage of 1.3. In the case of G34U U73A, the self-cleavage is reported as 2.36. In the case of G34U U73G, the self-cleavage is reported as 0.99. In the case of G35U U100C, the self-cleavage is reported as 1.85. Work on G33U A43U yielded a self-cleavage of 0.54. In the case of G35C A67G, the self-cleavage is reported as 0.22. Variant C37U A79C has a self-cleavage of 1.22. With G34U U47C the self-cleavage was 2.18. With C38U A117G the self-cleavage was 2.38. Work on C38U A138G yielded a self-cleavage of 0.83. G35U U104A showed a self-cleavage of 1.31. In the case of C38U U96C, the self-cleavage is reported as 0.17. Variant C38U U96A has a self-cleavage of 0.04. For C38U A43G, the self-cleavage was 0.81. G34A A57G gave a self-cleavage of 1.21. In the case of G36C A140G, the self-cleavage is reported as 1.12. With G34C A140G the self-cleavage was 1.38. With G35A G86A the self-cleavage was 0.05. With C37A A64U the self-cleavage was 0.35. In the case of G35A U108C, the self-cleavage is reported as 1.11. For C37G U96G, the self-cleavage was 0.07. C38A U52C showed a self-cleavage of 0.99. G36A U108C gave a self-cleavage of 1.37. Variant G36A U108A has a self-cleavage of 1.23. G34A A94G showed a self-cleavage of 0.18. Variant G34U U52A has a self-cleavage of 1.22. G34A A121G showed a self-cleavage of 1.16. Work on G34A A121U yielded a self-cleavage of 1.22. Work on G36U U62A yielded a self-cleavage of 0.03. Work on G36U U119A yielded a self-cleavage of 1.4. Work on G35A U39C yielded a self-cleavage of 0.53. For G34U U104A, the self-cleavage was 1.53. Variant G35U A67G has a self-cleavage of 0.35. Variant G34A C95A has a self-cleavage of 0.07. C38U U46A gave a self-cleavage of 1.28. In the case of G36A C63U, the self-cleavage is reported as 0.36. Work on C37G U47C yielded a self-cleavage of 0.71. Work on C37G U47A yielded a self-cleavage of 1.11. For G33U A141G, the self-cleavage was 1.32. G33U A64U gave a self-cleavage of 0.41. Work on G33U A64G yielded a self-cleavage of 0.21. G34A U102C showed a self-cleavage of 1.43. For C37A A94C, the self-cleavage was 0.06. With C37A A94U the self-cleavage was 0.23. C37U U130A showed a self-cleavage of 0.99. Work on G36A A64G yielded a self-cleavage of 0.13. With G34U A77G the self-cleavage was 2.2. Variant G34U U119C has a self-cleavage of 1.7. Variant G36A has a self-cleavage of 1.16. G36U showed a self-cleavage of 1.35. For G36C, the self-cleavage was 1.07. For G34C U47C, the self-cleavage was 1.79. G34C U47A gave a self-cleavage of 0.64. With G35A G105A the self-cleavage was 1.15. Variant G36C U47A has a self-cleavage of 0.89. Variant G35U C110U has a self-cleavage of 1.51. For G36A A136G, the self-cleavage was 1.43. C37A U143C gave a self-cleavage of 0.75. With C37U A121G the self-cleavage was 1.62. U39A A59G showed a self-cleavage of 0.08. In the case of U39A A59U, the self-cleavage is reported as 1.19. Variant G34U G48A has a self-cleavage of 1.49. With C38A U104C the self-cleavage was 0.82. Variant G36C U102C has a self-cleavage of 1.08. G34U A138G showed a self-cleavage of 1.56. G34U A138U gave a self-cleavage of 1.19. C38U C110A showed a self-cleavage of 1.64. Work on G33U A136G yielded a self-cleavage of 1.7. With G34C A136G the self-cleavage was 1.79. For G36A U45G, the self-cleavage was 0.92. In the case of C38A A140G, the self-cleavage is reported as 1.28. G35A A77U gave a self-cleavage of 0.8. G35A A77G showed a self-cleavage of 1.92. For G34U U39A, the self-cleavage was 1.89. Work on U39A A43U yielded a self-cleavage of 1.39. G34U U132C gave a self-cleavage of 1.51. For G35A U52A, the self-cleavage was 0.86. For G34C A77U, the self-cleavage was 1.18. In the case of G34C A77G, the self-cleavage is reported as 1.64. G35C U96C showed a self-cleavage of 0.26. In the case of G35A A124G, the self-cleavage is reported as 0.61. G33U A94G gave a self-cleavage of 0.15. For G35A A121U, the self-cleavage was 0.97. Work on G36U A107G yielded a self-cleavage of 0.9. In the case of G33C U119C, the self-cleavage is reported as 1.8. G33C U96A gave a self-cleavage of 0.05. U39A showed a self-cleavage of 1.34. C37A U100A showed a self-cleavage of 0.93. Work on C37A U100C yielded a self-cleavage of 1.56. Work on G34U U96G yielded a self-cleavage of 0. With G34C G82A the self-cleavage was 2.16. G33C U100C showed a self-cleavage of 1.63. In the case of C38G A138U, the self-cleavage is reported as 1.31. With G33U U87A the self-cleavage was 0.03. Work on G35U G127A yielded a self-cleavage of 1.22. In the case of G34U A107U, the self-cleavage is reported as 1.96. In the case of C37A A129G, the self-cleavage is reported as 1.22. Variant G36A U100C has a self-cleavage of 2.05. In the case of G34U U81C, the self-cleavage is reported as 2.12. For G36C G55A, the self-cleavage was 0.13. For G36U U45C, the self-cleavage was 1.13. G35A U96C gave a self-cleavage of 0.09. With G34A G70A the self-cleavage was 0.11. Work on G35A A136U yielded a self-cleavage of 1.1. G36A A121G gave a self-cleavage of 1.1. Variant C37A U130C has a self-cleavage of 1.39. C37U C146U showed a self-cleavage of 1.27. Work on G36C A117G yielded a self-cleavage of 1.51. With G33C U91C the self-cleavage was 0.41. Variant C38U U115A has a self-cleavage of 1.46. C38U U115C gave a self-cleavage of 1.6. G34C A42G showed a self-cleavage of 2.94. C38A U132C showed a self-cleavage of 1.02. With G34C U62A the self-cleavage was 0.04. In the case of G33U U134A, the self-cleavage is reported as 1.24. G35U A140U showed a self-cleavage of 1.19. In the case of G35U A140G, the self-cleavage is reported as 1.21. For G34U U109C, the self-cleavage was 1.52. C37A U108C showed a self-cleavage of 1.51. With G34A U85A the self-cleavage was 0.1. With G34A U85C the self-cleavage was 0.12. G34A A107G showed a self-cleavage of 2.74. Variant C37U U85C has a self-cleavage of 0.19. For G34A A79G, the self-cleavage was 1.11. Work on G34A A79U yielded a self-cleavage of 2.33. Variant G35C U119C has a self-cleavage of 1.98. With C37U A138G the self-cleavage was 1.2.
